From patent publication US11407840B2, “Antibodies to M(H)DM2/4 and their use in diagnosing and treating cancer” (NomoCan Pharmaceuticals LLC, priority 2017, dated 2022)

Experiments:
[1] = tested on: mouse pancreatic cancer Panc-2 cells (subcutaneous tumors); experiment: Panc-2 syngeneic mouse model of pancreatic cancer; assay type: in vivo, mouse (C57BL/6)
Procedure: Methodology used (Syngeneic Mouse Models of lung, colon and pancreatic cancer): To investigate the anti-tumor effects of HDM2-specific antibodies on lung, colon and pancreatic tumors in vivo, three well-known syngeneic mouse models of lung, colon and pancreatic cancer were used (Sharma et al, 1999, J. Immunol. 163 (9):5020-5028; McIntyre, 2015, Bioassays 37(8):909-920; Li, et al, 2015, Sci. Rep. 5:7856). Subcutaneous tumors were prepared by implanting either mouse Lewis Lung cancer LL/2 cells (2.5×10^5 cells/mouse), mouse colon cancer MC-38 cells (5×10^5 cells/mouse) or mouse pancreatic cancer Panc-2 cells (2×10^6 cells/mouse) in the right flanks of 8-week-old female C57BL/6 mice (n=6-7). The mice were returned to their respective cages after tumor implantation. From day 7 after tumor implantation, the tumor volumes were measured 2 times/week with a digital caliper. In the case of MC-38 and Panc-2 study, treatment started when the tumors reached an average of 70-80 mm^3. In the case of LL/2 study, tumor cell inoculation and treatment were initiated simultaneously. Mice were micro-chipped and registered following tumor implantation. […] All tumors were injected subcutaneously and all treatments were performed by intraperitoneal injection. Any mouse displaying prolonged adverse clinical signs, or with body weight loss exceeding 15% relative to body weight at day 0, was euthanized.
The efficacy of FIDM2-specific antibody treatment and standard of care chemotherapy was further compared. […] As shown in the tumor volume graph of FIG. 19, when tumors in mice reached approximately 70 mm^3, mice were divided into 4 groups (n=6) that received: A) isotype control mouse IgG1 (2 mg/kg); B) low dose Gemcitabine (25 mg/kg) and nab-Paclitaxel (5 mg/kg); C) NMC-103 (2 mg/kg); or D) a combination of low dose Gemcitabine (25 mg/kg), nab-Paclitaxel (5 mg/kg) and NMC-103 (2 mg/kg). All drugs were injected intraperitoneally 2 times a week for 3 weeks. After receiving the 6th dose on day 19, treatments were stopped for 2 weeks.
The anti-tumor efficacy of NMC-103 and of its combination with pancreatic cancer standard of care treatment Gemcitabine (G) and nab-Paclitaxel (nP) was further evaluated in vivo utilizing the Panc-2 syngeneic mouse model of pancreatic cancer discussed above.
All drugs were injected intraperitoneally 2 times a week for 4 weeks.
The mice were then randomly divided in 2 groups that received a single dose of: A) isotype control mouse IgG1 (10 mg/kg) or B) NMC-103 (10 mg/kg).

[2] = target: NMC-P1 peptide (SEQ ID NO:1) (Homo sapiens, UniProt Q00987); experiment: Peptide antigen binding competition ELISA; details: mAb pre-incubated with peptide 1 hour at room temperature; FIG. 1D
Procedure: Peptide-ELISA Methodology: 5 μg/ml of NMC-P1, NMC-P2 or NMC-P3 peptide antigen was dried onto a 96-well ELISA plate overnight. Plates were then blocked with 5% BSA in 1× phosphate-buffered saline (PBS) (100 ? /well) for 2 hours at room temperature. Microplate wells were then washed 5 times with 300 ? of ice cold 1× PBS. Appropriate dilutions of monoclonal antibodies NMC-103, NMC-204 or NMC-303 in 1% bovine serum albumin (BSA) in PBS solution were then incubated with their corresponding peptides (NMC-P1, NMC-P2 or NMC-P3, respectively) at room temperature. After 2 hours, wells were washed 5 times with 300 ? ? ice-cold PBS/well and 100 ? secondary antibody (HRP-labeled Goat anti-Mouse F(ab′)2 H&L cross-adsorbed secondary antibody (HRP-GaM F(ab′)2), ThermoFisher, Cat. No. A24524) diluted 1:2500 to 1:5000 in PBS-1% BSA solution were added and the incubation continued at room temperature. After 1 hour, the wells were washed again 5 times with 200 ? of ice-cold PBS and 50 μiL of the TMB Substrate Solution (1-StepTM Ultra TMB-ELISA, ThermoFisher, Cat. No. 34028) were added to each well and color was allowed to develop for 30 minutes at room temperature. The reaction was stopped by addition of 50 μ ? ? of stop solution (ThermoFisher, Cat. No. SSO4) to each well and absorbance of each well was read immediately for optical density (OD) at 450 nm. […]

B1: NMC-103: mouse monoclonal antibody, IgG1 isotype, binds NMC-P1 (SEQ ID NO:1); VH SEQ ID NO:36, VL SEQ ID NO:37 (antibody, V domains shown)
VH: EVQLQESGGGLVQPGGSLRLSCTTSGFTFTHYYMSWVRQPPGKALEWLGFIRNKAKGYTAEYSASVKGRFTISRDNSQSILYLQMNTLRPEDSATYYCARDIGDNWGQGTLVTVSS
VL: DIVMTQAAFSNPVTLGTSASISCRSSKNLLHSNGITYLYWYLQRPGQSPQLLISRVSNLASGVPNRFSGSESGTDFTLRISRVEAEDVGVYFCAQLLELPYTFGGGTKLEIK
modifications: mAb NMC-103 Heavy Chain Variable Region; mAb NMC-103 Light Chain Variable Region
Question: Which results are given for B1?
Answer: tumor size 6 days after a single i.p. injection ([1]; 10 mg/kg single dose after 19 days of Gemcitabine 25 mg/kg + nab-Paclitaxel 5 mg/kg, from 438 mm^3, FIG. 30): 233 mm^3; Kaplan Meier survival analysis versus chemotherapy alone or control antibody ([1]; conditions of FIG. 27, FIG. 28): significant survival benefit; average tumor size / measurement ([1]; day 34, NMC-103 10 mg/kg, Gemcitabine 25 mg/kg, nab-Paclitaxel 5 mg/kg i.p. 2 times a week for 4 weeks, surviving mice, NMC-103 group values ascribed to scars and inflammation, FIG. 27): 230 mm^3; average tumor volume ([1]; day 35, i.p. 2 times a week for 3 weeks (6th dose day 19), then 2 weeks off, antibody 2 mg/kg, Gemcitabine 25 mg/kg, nab-Paclitaxel 5 mg/kg, start approx 70 mm^3, n=6, FIG. 19): 1523 mm^3; tumor growth during 4 further weeks without drug treatment (to day 62) ([1]; groups C (n=8) and D (n=7) of FIG. 27): no sign of tumor growth beyond the initial scar size; tumor 10 days after re-challenge with Panc-2 cells ([1]; re-challenge at day 62, 2×10^6 cells/mouse s.c. left dorsal flank, previously treated mice of FIG. 27, FIG. 29): no tumor was observed; binding of mAb to NMC-P1 peptide on the plate after pre-incubation with NMC-P1 peptide [2]: abolished the binding; binding of mAb to NMC-P1 peptide on the plate after pre-incubation with NMC-P2 or NMC-P3 [2]: did not affect the binding
